# Measurements published in patent publication US11965039B2, “Compstatin analogues and their medical uses” (priority 2018, dated 2024).
# Positions of bridges follow the written chain, without caps; N, C: chain ends. Non-standard residues stand in square brackets, D forms with d. Trp(1-Me) = Cn1cc(C[C@H](N)C(=O)O)c2ccccc21; Sar = CNCC(=O)O
# B1: Compound 19 (peptide)
# peptide: Ac-ICIWQDWGAHSCT-NH2
# modifications: disulfide 2-12
# SMILES: CC[C@H](C)[C@H](NC(C)=O)C(=O)N[C@H]1CSSC[C@@H](C(=O)N[C@H](C(N)=O)[C@@H](C)O)NC(=O)[C@H](CO)NC(=O)[C@H](Cc2c[nH]cn2)NC(=O)[C@H](C)NC(=O)CNC(=O)[C@H](Cc2c[nH]c3ccccc23)NC(=O)[C@H](CC(=O)O)NC(=O)[C@H](CCC(N)=O)NC(=O)[C@H](Cc2c[nH]c3ccccc23)NC(=O)[C@H]([C@@H](C)CC)NC1=O
# B2: Compound C (peptide)
# peptide: Ac-ESSAICVWQDWGEHRCT-NH2
# modifications: disulfide 6-16
# SMILES: CC[C@H](C)[C@H](NC(=O)[C@H](C)NC(=O)[C@H](CO)NC(=O)[C@H](CO)NC(=O)[C@H](CCC(=O)O)NC(C)=O)C(=O)N[C@H]1CSSC[C@@H](C(=O)N[C@H](C(N)=O)[C@@H](C)O)NC(=O)[C@H](CCCNC(=N)N)NC(=O)[C@H](Cc2c[nH]cn2)NC(=O)[C@H](CCC(=O)O)NC(=O)CNC(=O)[C@H](Cc2c[nH]c3ccccc23)NC(=O)[C@H](CC(=O)O)NC(=O)[C@H](CCC(N)=O)NC(=O)[C@H](Cc2c[nH]c3ccccc23)NC(=O)[C@H](C(C)C)NC1=O
# B3: Compound E (peptide)
# peptide: Ac-ICVWQDWGAHSCT-NH2
# modifications: disulfide 2-12
# SMILES: CC[C@H](C)[C@H](NC(C)=O)C(=O)N[C@H]1CSSC[C@@H](C(=O)N[C@H](C(N)=O)[C@@H](C)O)NC(=O)[C@H](CO)NC(=O)[C@H](Cc2c[nH]cn2)NC(=O)[C@H](C)NC(=O)CNC(=O)[C@H](Cc2c[nH]c3ccccc23)NC(=O)[C@H](CC(=O)O)NC(=O)[C@H](CCC(N)=O)NC(=O)[C@H](Cc2c[nH]c3ccccc23)NC(=O)[C@H](C(C)C)NC1=O
# B4: Compound 24 (peptide)
# peptide: Ac-ICIWQDWGEHRCTEGE-NH2
# modifications: disulfide 2-12
# SMILES: CC[C@H](C)[C@H](NC(C)=O)C(=O)N[C@H]1CSSC[C@@H](C(=O)N[C@H](C(=O)N[C@@H](CCC(=O)O)C(=O)NCC(=O)N[C@@H](CCC(=O)O)C(N)=O)[C@@H](C)O)NC(=O)[C@H](CCCNC(=N)N)NC(=O)[C@H](Cc2c[nH]cn2)NC(=O)[C@H](CCC(=O)O)NC(=O)CNC(=O)[C@H](Cc2c[nH]c3ccccc23)NC(=O)[C@H](CC(=O)O)NC(=O)[C@H](CCC(N)=O)NC(=O)[C@H](Cc2c[nH]c3ccccc23)NC(=O)[C@H]([C@@H](C)CC)NC1=O
# notes: also called Comp No 24
# B5: Compound 28 (peptide)
# peptide: Ac-EGSAICIWQDWGEHRC[Sar]E-NH2
# modifications: disulfide 6-16
# SMILES: CC[C@H](C)[C@H](NC(=O)[C@H](C)NC(=O)[C@H](CO)NC(=O)CNC(=O)[C@H](CCC(=O)O)NC(C)=O)C(=O)N[C@H]1CSSC[C@@H](C(=O)N(C)CC(=O)N[C@@H](CCC(=O)O)C(N)=O)NC(=O)[C@H](CCCNC(=N)N)NC(=O)[C@H](Cc2c[nH]cn2)NC(=O)[C@H](CCC(=O)O)NC(=O)CNC(=O)[C@H](Cc2c[nH]c3ccccc23)NC(=O)[C@H](CC(=O)O)NC(=O)[C@H](CCC(N)=O)NC(=O)[C@H](Cc2c[nH]c3ccccc23)NC(=O)[C@H]([C@@H](C)CC)NC1=O
# B6: Compound 3 (peptide)
# peptide: Ac-ESSAICIWQDWGEHRCT-NH2
# modifications: disulfide 6-16
# SMILES: CC[C@H](C)[C@H](NC(=O)[C@H](C)NC(=O)[C@H](CO)NC(=O)[C@H](CO)NC(=O)[C@H](CCC(=O)O)NC(C)=O)C(=O)N[C@H]1CSSC[C@@H](C(=O)N[C@H](C(N)=O)[C@@H](C)O)NC(=O)[C@H](CCCNC(=N)N)NC(=O)[C@H](Cc2c[nH]cn2)NC(=O)[C@H](CCC(=O)O)NC(=O)CNC(=O)[C@H](Cc2c[nH]c3ccccc23)NC(=O)[C@H](CC(=O)O)NC(=O)[C@H](CCC(N)=O)NC(=O)[C@H](Cc2c[nH]c3ccccc23)NC(=O)[C@H]([C@@H](C)CC)NC1=O
# B7: Compound B (peptide)
# peptide: Ac-ICVWQDWGSHRCT-NH2
# modifications: disulfide 2-12
# SMILES: CC[C@H](C)[C@H](NC(C)=O)C(=O)N[C@H]1CSSC[C@@H](C(=O)N[C@H](C(N)=O)[C@@H](C)O)NC(=O)[C@H](CCCNC(=N)N)NC(=O)[C@H](Cc2c[nH]cn2)NC(=O)[C@H](CO)NC(=O)CNC(=O)[C@H](Cc2c[nH]c3ccccc23)NC(=O)[C@H](CC(=O)O)NC(=O)[C@H](CCC(N)=O)NC(=O)[C@H](Cc2c[nH]c3ccccc23)NC(=O)[C@H](C(C)C)NC1=O
# B8: Compound 6 (peptide)
# peptide: Ac-ICIWQDWGSHRCT-NH2
# modifications: disulfide 2-12
# SMILES: CC[C@H](C)[C@H](NC(C)=O)C(=O)N[C@H]1CSSC[C@@H](C(=O)N[C@H](C(N)=O)[C@@H](C)O)NC(=O)[C@H](CCCNC(=N)N)NC(=O)[C@H](Cc2c[nH]cn2)NC(=O)[C@H](CO)NC(=O)CNC(=O)[C@H](Cc2c[nH]c3ccccc23)NC(=O)[C@H](CC(=O)O)NC(=O)[C@H](CCC(N)=O)NC(=O)[C@H](Cc2c[nH]c3ccccc23)NC(=O)[C@H]([C@@H](C)CC)NC1=O
# B9: Compound F (peptide)
# peptide: Ac-ICVWQDWGEHSCT-NH2
# modifications: disulfide 2-12
# SMILES: CC[C@H](C)[C@H](NC(C)=O)C(=O)N[C@H]1CSSC[C@@H](C(=O)N[C@H](C(N)=O)[C@@H](C)O)NC(=O)[C@H](CO)NC(=O)[C@H](Cc2c[nH]cn2)NC(=O)[C@H](CCC(=O)O)NC(=O)CNC(=O)[C@H](Cc2c[nH]c3ccccc23)NC(=O)[C@H](CC(=O)O)NC(=O)[C@H](CCC(N)=O)NC(=O)[C@H](Cc2c[nH]c3ccccc23)NC(=O)[C@H](C(C)C)NC1=O
# B10: Compound H (peptide)
# peptide: Ac-EGSAICVWQDWGEHRC[Sar]E-NH2
# modifications: disulfide 6-16
# SMILES: CC[C@H](C)[C@H](NC(=O)[C@H](C)NC(=O)[C@H](CO)NC(=O)CNC(=O)[C@H](CCC(=O)O)NC(C)=O)C(=O)N[C@H]1CSSC[C@@H](C(=O)N(C)CC(=O)N[C@@H](CCC(=O)O)C(N)=O)NC(=O)[C@H](CCCNC(=N)N)NC(=O)[C@H](Cc2c[nH]cn2)NC(=O)[C@H](CCC(=O)O)NC(=O)CNC(=O)[C@H](Cc2c[nH]c3ccccc23)NC(=O)[C@H](CC(=O)O)NC(=O)[C@H](CCC(N)=O)NC(=O)[C@H](Cc2c[nH]c3ccccc23)NC(=O)[C@H](C(C)C)NC1=O
# B11: Compound J (peptide)
# peptide: Ac-ICVWQDWGEHRCTEGE-NH2
# modifications: disulfide 2-12
# SMILES: CC[C@H](C)[C@H](NC(C)=O)C(=O)N[C@H]1CSSC[C@@H](C(=O)N[C@H](C(=O)N[C@@H](CCC(=O)O)C(=O)NCC(=O)N[C@@H](CCC(=O)O)C(N)=O)[C@@H](C)O)NC(=O)[C@H](CCCNC(=N)N)NC(=O)[C@H](Cc2c[nH]cn2)NC(=O)[C@H](CCC(=O)O)NC(=O)CNC(=O)[C@H](Cc2c[nH]c3ccccc23)NC(=O)[C@H](CC(=O)O)NC(=O)[C@H](CCC(N)=O)NC(=O)[C@H](Cc2c[nH]c3ccccc23)NC(=O)[C@H](C(C)C)NC1=O
# B12: Compound 20 (peptide)
# peptide: Ac-ICIWQDWGEHSCT-NH2
# modifications: disulfide 2-12
# SMILES: CC[C@H](C)[C@H](NC(C)=O)C(=O)N[C@H]1CSSC[C@@H](C(=O)N[C@H](C(N)=O)[C@@H](C)O)NC(=O)[C@H](CO)NC(=O)[C@H](Cc2c[nH]cn2)NC(=O)[C@H](CCC(=O)O)NC(=O)CNC(=O)[C@H](Cc2c[nH]c3ccccc23)NC(=O)[C@H](CC(=O)O)NC(=O)[C@H](CCC(N)=O)NC(=O)[C@H](Cc2c[nH]c3ccccc23)NC(=O)[C@H]([C@@H](C)CC)NC1=O
# B13: Compound 85 (peptide)
# peptide: Ac-EFCI[Trp(1-Me)]QDWGEHRCES-NH2
# modifications: disulfide 3-13
# SMILES: CC[C@H](C)[C@@H]1NC(=O)[C@@H](NC(=O)[C@H](Cc2ccccc2)NC(=O)[C@H](CCC(=O)O)NC(C)=O)CSSC[C@@H](C(=O)N[C@@H](CCC(=O)O)C(=O)N[C@@H](CO)C(N)=O)NC(=O)[C@H](CCCNC(=N)N)NC(=O)[C@H](Cc2c[nH]cn2)NC(=O)[C@H](CCC(=O)O)NC(=O)CNC(=O)[C@H](Cc2c[nH]c3ccccc23)NC(=O)[C@H](CC(=O)O)NC(=O)[C@H](CCC(N)=O)NC(=O)[C@H](Cc2cn(C)c3ccccc23)NC1=O
# How the values were obtained:
# [1] = target: T1, Human C3 (Complement tech cat #A113c) (human, UniProt P01024 23-1663); experiment: cell-based or functional assay
# [2] = target: T1, Human C3 (Complement tech cat #A113c); experiment: cell-based or functional assay; remark: listed apart in the source
# [3] = target: T1, Human C3 (Complement tech cat #A113c); experiment: SPR (Biacore T200), human C3 immobilised, peptide injected, 1:1 fit
# In short: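 Human C3 amine-coupled on CM5 chips to about 3000 RU. Multi-cycle runs on Biacore T200 at 25° C: peptides at 6-8 rising concentrations, 60-120 s at 30 µL/min in 10 mM Tris pH 7.4, 150 mM NaCl, 0.05% Tween20, dissociation up to 10 min; 3 M MgCl2 regeneration. Kd derived.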
# T1 sequence (P01024 23-1663 limits assumed): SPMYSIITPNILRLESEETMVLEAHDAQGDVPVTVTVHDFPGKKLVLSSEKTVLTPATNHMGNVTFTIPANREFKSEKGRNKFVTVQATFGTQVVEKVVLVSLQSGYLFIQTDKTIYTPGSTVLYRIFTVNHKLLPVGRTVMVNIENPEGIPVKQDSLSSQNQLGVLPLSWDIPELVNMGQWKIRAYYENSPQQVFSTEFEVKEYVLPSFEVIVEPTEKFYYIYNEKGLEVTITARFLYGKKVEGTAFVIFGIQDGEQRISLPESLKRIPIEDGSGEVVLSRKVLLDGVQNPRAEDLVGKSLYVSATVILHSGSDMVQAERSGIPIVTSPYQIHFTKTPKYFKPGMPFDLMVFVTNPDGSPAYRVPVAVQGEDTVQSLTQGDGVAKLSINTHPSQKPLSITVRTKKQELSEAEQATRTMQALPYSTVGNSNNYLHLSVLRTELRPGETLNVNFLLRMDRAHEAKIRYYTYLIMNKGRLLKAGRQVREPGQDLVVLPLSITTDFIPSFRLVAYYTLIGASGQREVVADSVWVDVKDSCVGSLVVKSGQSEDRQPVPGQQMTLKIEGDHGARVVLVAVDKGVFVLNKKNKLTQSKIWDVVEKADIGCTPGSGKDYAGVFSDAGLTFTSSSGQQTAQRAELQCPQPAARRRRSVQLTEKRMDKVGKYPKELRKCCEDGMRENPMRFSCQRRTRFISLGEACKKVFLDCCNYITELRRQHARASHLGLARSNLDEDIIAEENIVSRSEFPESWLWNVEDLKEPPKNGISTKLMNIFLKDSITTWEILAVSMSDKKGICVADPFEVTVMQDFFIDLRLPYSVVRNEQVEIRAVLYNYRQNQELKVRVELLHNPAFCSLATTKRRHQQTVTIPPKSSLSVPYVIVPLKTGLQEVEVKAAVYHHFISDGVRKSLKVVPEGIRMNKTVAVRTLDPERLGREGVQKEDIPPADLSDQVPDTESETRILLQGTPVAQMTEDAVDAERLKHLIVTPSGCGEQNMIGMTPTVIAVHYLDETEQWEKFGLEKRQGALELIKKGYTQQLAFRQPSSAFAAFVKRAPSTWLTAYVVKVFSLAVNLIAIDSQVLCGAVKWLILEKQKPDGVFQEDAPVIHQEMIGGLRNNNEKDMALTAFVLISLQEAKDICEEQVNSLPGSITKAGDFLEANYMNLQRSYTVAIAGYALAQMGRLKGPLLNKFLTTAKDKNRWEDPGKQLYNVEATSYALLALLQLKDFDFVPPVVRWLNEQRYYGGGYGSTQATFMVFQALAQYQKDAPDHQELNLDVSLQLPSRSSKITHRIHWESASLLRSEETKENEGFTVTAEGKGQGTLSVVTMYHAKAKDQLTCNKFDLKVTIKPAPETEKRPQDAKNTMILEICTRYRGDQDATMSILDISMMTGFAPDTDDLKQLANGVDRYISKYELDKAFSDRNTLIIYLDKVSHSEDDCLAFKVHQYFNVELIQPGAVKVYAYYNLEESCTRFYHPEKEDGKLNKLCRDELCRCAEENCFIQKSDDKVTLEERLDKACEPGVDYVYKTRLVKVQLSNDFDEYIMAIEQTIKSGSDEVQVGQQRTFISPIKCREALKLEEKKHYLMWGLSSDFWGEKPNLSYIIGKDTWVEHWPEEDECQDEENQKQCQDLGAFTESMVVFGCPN
Binder,CP hemolysis IC50 [1] [nM],inhibition of hemolysis IC50 [2] [nM],Kd [3] [nM]
B1,140,< 250,
B2,300,,
B3,> 1000,,
B4,90,< 100,28
B5,88,< 100,44
B6,69,< 100,
B7,360,,
B8,140,< 250,
B9,540,,
B10,330,,
B11,240,,
B12,59,< 100,37
B13,,< 100,1.3
